Reference: paper PMC3880865 (Nature structural & molecular biology, 2012)

What follows are binders tested against UbcH5B (UniProt P62837 1-147) (assay: SPR).

Row | Kd | Binder
1 | 320 µM | GST-CBL47–435 M222F (domain or fragment) PPGTVDKKMVEKCWKLMDKVVRLCQNPKLALKNSPPYILDLLPDTYQHLRTILSRYEGKMETLGENEYFRVFMENLMKKTKQTISLFKEGKERMYEENSQPRRNLTKLSLIFSHMLAELKGIFPSGLFQGDTFRITKADAAEFWRKAFGEKTIVPWKSFRQALHEVHPISSGLEAFALKSTIDLTCNDYISVFEFDIFTRLFQPWSSLLRNWNSLAVTHPGYMAFLTYDEVKARLQKFIHKPGSYIFRLSCTRLGQWAIGYVTADGNILQTIPHNKPLFQALIDGFREGFYLFPDGRNQNPDLTGLCEPTPQDHIKVTQEQYELYCEMGSTFQLCKICAENDKDVKIEPCGHLMCTSCLTSWQESEGQGCPFCRCEIKGTEPIVVDPFD
2 | 50 µM | GST-CBL354–435 Y371F (domain or fragment) EPTPQDHIKVTQEQYELFCEMGSTFQLCKICAENDKDVKIEPCGHLMCTSCLTSWQESEGQGCPFCRCEIKGTEPIVVDPFD
3 | 38 µM | GST-CBL354–435 Y368F (domain or fragment) EPTPQDHIKVTQEQFELYCEMGSTFQLCKICAENDKDVKIEPCGHLMCTSCLTSWQESEGQGCPFCRCEIKGTEPIVVDPFD
4 | 20 µM | GST-CBL354–435 pY371 (domain or fragment, phosphotyrosine at 371) EPTPQDHIKVTQEQYELYCEMGSTFQLCKICAENDKDVKIEPCGHLMCTSCLTSWQESEGQGCPFCRCEIKGTEPIVVDPFD
5 | 43 µM | GST-CBL47–435 Y368F pY371 V431A (domain or fragment, phosphotyrosine at 371) PPGTVDKKMVEKCWKLMDKVVRLCQNPKLALKNSPPYILDLLPDTYQHLRTILSRYEGKMETLGENEYFRVFMENLMKKTKQTISLFKEGKERMYEENSQPRRNLTKLSLIFSHMLAELKGIFPSGLFQGDTFRITKADAAEFWRKAFGEKTIVPWKSFRQALHEVHPISSGLEAMALKSTIDLTCNDYISVFEFDIFTRLFQPWSSLLRNWNSLAVTHPGYMAFLTYDEVKARLQKFIHKPGSYIFRLSCTRLGQWAIGYVTADGNILQTIPHNKPLFQALIDGFREGFYLFPDGRNQNPDLTGLCEPTPQDHIKVTQEQFELYCEMGSTFQLCKICAENDKDVKIEPCGHLMCTSCLTSWQESEGQGCPFCRCEIKGTEPIVADPFD
6 | 42 µM | GST-CBL354–435 WT (domain or fragment) EPTPQDHIKVTQEQYELYCEMGSTFQLCKICAENDKDVKIEPCGHLMCTSCLTSWQESEGQGCPFCRCEIKGTEPIVVDPFD
7 | 81 µM | GST-CBL47–435 Y368F pY371 K389A (domain or fragment, phosphotyrosine at 371) PPGTVDKKMVEKCWKLMDKVVRLCQNPKLALKNSPPYILDLLPDTYQHLRTILSRYEGKMETLGENEYFRVFMENLMKKTKQTISLFKEGKERMYEENSQPRRNLTKLSLIFSHMLAELKGIFPSGLFQGDTFRITKADAAEFWRKAFGEKTIVPWKSFRQALHEVHPISSGLEAMALKSTIDLTCNDYISVFEFDIFTRLFQPWSSLLRNWNSLAVTHPGYMAFLTYDEVKARLQKFIHKPGSYIFRLSCTRLGQWAIGYVTADGNILQTIPHNKPLFQALIDGFREGFYLFPDGRNQNPDLTGLCEPTPQDHIKVTQEQFELYCEMGSTFQLCKICAENDADVKIEPCGHLMCTSCLTSWQESEGQGCPFCRCEIKGTEPIVVDPFD
8 | 18 µM | GST-CBL354–435 Y368F pY371 (domain or fragment, phosphotyrosine at 371) EPTPQDHIKVTQEQFELYCEMGSTFQLCKICAENDKDVKIEPCGHLMCTSCLTSWQESEGQGCPFCRCEIKGTEPIVVDPFD
